Measured values published in US20070020327A1.
Read-outs that look alike come from different tables or passages of the source. Blank lines part the entries; values can stand above or below the binder they belong to.

Tests used:
HLA-A*0201 (human) [1] = assay: inhibition of 125I-labelled probe peptide binding to purified HLA, gel filtration; conditions: remark: other sources report otherwise
HLA-A*1101 (human) [2] = assay: competition with 125I-labelled standard peptide on purified HLA-A*1101, gel filtration
HLA-A*0201 (human) [3] = assay: competition with 125I-labelled standard peptide 941.01 for purified HLA, gel filtration; conditions: scale: ratio
HLA-A*0202 (human) [4] = assay: as above; conditions: scale: ratio
HLA-A*0206 (human) [5] = assay: as above; conditions: scale: ratio
HLA-A*0203 (human) = assay: as above; conditions: scale: ratio
HLA-A*0201 (human) [6] = assay: inhibition of 125I-standard peptide binding to purified HLA, gel filtration
HLA-A*0206 (human) [7] = assay: inhibition of 125I-labelled standard peptide binding to purified HLA-A*0206, gel filtration
HLA-A*0201 (human) [8] = assay: inhibition of 125I-labelled standard peptide binding to purified HLA-A*0201, gel filtration
HLA-A*0301 (human) [9] = assay: competition with 125I-labelled standard peptide (941.12 [..]) for purified HLA-A*0301, gel filtration
HLA-A*0201 (human) [10] = assay: competition with 125I-labelled standard peptide (941.01 [..]) for purified HLA, gel filtration
HLA-A*0301 (human) [11] = assay: competition with 125I-labelled standard peptide for purified HLA-A*0301, gel filtration
HLA-A*1101 (human) [12] = assay: competition with 125I-labelled standard peptide for purified HLA, gel filtration; conditions: scale: ratio
HLA-A*0301 (human) [13] = assay: as above; conditions: scale: ratio
HLA-A*0202 (human) [14] = assay: competition with 125I standard peptide for purified HLA; gel filtration; conditions: remark: other sources report otherwise
[15] = remark: other sources report otherwise

IC50 (HLA-A*0201 (human) [1]): 24 nM
Binder: ALSVGCTGV (modifications not checked) [Peptide 1418.15 (HuK2.9.V9) …]

binding affinity ratio (IC50 of standard peptide / IC50 of test peptide) (HLA-A*1101 (human) [2]): 0.0002
Binder: LLPPYASCH (modifications not checked) [PAP peptide … (position 306, 9 amino acids)]

binding affinity ratio (HLA-A*0201 (human) [3]): 0.0001
binding affinity ratio (HLA-A*0202 (human) [4]): 0.0002
binding affinity ratio (HLA-A*0206 (human) [5]): -0.0001
binding affinity ratio (HLA-A*0203 (human)): 0.0031
Binder: VTKFMLCA (modifications not checked) [VTKFMLCA (PSA, position 188, 8 amino acids)]

binding affinity ratio (IC50 standard peptide / IC50 test peptide) (ratio to standard peptide) (HLA-A*0201 (human) [6]): 0.0003
Binder: LVASRGRAV (modifications not checked) [PSA 37 …]

binding affinity ratio (IC50 of standard peptide / IC50 of test peptide) (HLA-A*0206 (human) [7]): 0.002
binding affinity ratio (IC50 of standard peptide / IC50 of test peptide) (HLA-A*0201 (human) [8]): 0.0001
Binder: AVPLIQSRI (modifications not checked) [… (Kallikrein, position 17)]

binding affinity ratio (IC50 of standard peptide / IC50 of test peptide) (HLA-A*0301 (human) [9]; [15]): 0.0003
Binder: YASCHLTELY (modifications not checked) [PAP.310 …]

binding affinity ratio (IC50 of the standard peptide / IC50 of the test peptide) (HLA-A*0301 (human) [9]): 0.0006
Binder: TLVFRHGDR (modifications not checked) [… (PAP, position 39, 9 amino acids)]

binding affinity ratio (IC50 of standard peptide / IC50 of test peptide) (HLA-A*0201 (human) [10]): 0.0001
Binder: FTGNFSTQKV (modifications not checked) [PSM peptide … (position 333, 10 amino acids)]

binding affinity ratio (IC50 of standard peptide / IC50 of test peptide) (HLA-A*1101 (human) [2]): 0.0002
Binder: LGEYIRKRYR (modifications not checked) [PAP peptide … (position 81, 10 amino acids)]

binding affinity ratio (IC50 of the standard peptide / IC50 of the test peptide) (HLA-A*0301 (human) [9]): 0.0002
Binder: TGQVFQVSH (modifications not checked) [… (PSA, position 82, 9 amino acids)]

IC50 (HLA-A*0201 (human) [1]): 50 nM
Binder: DLMLLRLSEPV (modifications not checked) [Peptide 63.0109 (HuK2.120.V11; PSA.116.V11) …]

binding affinity ratio (IC50 of standard peptide / IC50 of test peptide) (HLA-A*0301 (human) [9]): 0.0006
Binder: YDAQKLLEK (modifications not checked) [PSM.300 …]

binding affinity ratio (IC50 of standard peptide / IC50 of test peptide) (HLA-A*0301 (human) [9]): 0.0006
Binder: YGIHKQKEK (modifications not checked) [PAP.247 …]

binding affinity ratio (IC50 of standard peptide / IC50 of test peptide) (HLA-A*1101 (human) [2]; [15]): 0.0002
Binder: LGEYIRKRY (modifications not checked) [PAP peptide … (position 81, 9 amino acids)]

binding affinity ratio (IC50 of standard peptide / IC50 of test peptide) (HLA-A*0301 (human) [9]): 0.0006
Binder: YGKVFRGNK (modifications not checked) [PSM.205 …]

binding affinity ratio (IC50 of the standard peptide / IC50 of the test peptide) (HLA-A*0301 (human) [11]; [15]): 0.011
Binder: RAVCGGVLVH (modifications not checked) [… (PSA, position 43)]

binding affinity ratio (IC50 of standard peptide / IC50 of test peptide) (HLA-A*0201 (human) [10]): 0.0002
Binder: ETQHEPYPL (modifications not checked) [PAP peptide … (position 334, 9 amino acids)]

binding affinity ratio (IC50 of standard peptide / IC50 of test peptide) (HLA-A*0301 (human) [11]): 0.0005
Binder: EMKTYSVSF (modifications not checked) [PSM 621 peptide …]

binding affinity ratio (HLA-A*0201 (human) [3]): -0.0001
binding affinity ratio (HLA-A*0202 (human) [4]): 0.0003
binding affinity ratio (HLA-A*0203 (human)): 0.0005
Binder: VTEFMLCA (modifications not checked) [VTEFMLCA (Kallikrein, position 192, 8 amino acids)]

binding affinity ratio (IC50 of the standard peptide / IC50 of the test peptide) (HLA-A*0301 (human) [11]): 0.0003
binding affinity ratio (HLA-A*1101 (human) [12]): 0.0002
binding affinity ratio (HLA-A*0301 (human) [13]): 0.0003
Binder: PSKAWGEVKR (modifications not checked) [… (PSM, position 721)]

IC50 (HLA-A*0202 (human) [14]): 1 nM
Binder: ALFPPEGVSV (modifications not checked) [Peptide 1419.61 … (PAP.122.V10)]

binding affinity ratio (HLA-A*0201 (human) [3]; [15]): 0.0003
binding affinity ratio (HLA-A*0202 (human) [4]; [15]): 0.02
binding affinity ratio (HLA-A*0206 (human) [5]; [15]): 0.0006
Binder: GLPTQEPALGT (modifications not checked) [Kallikrein (hK2) peptide … (position 140)]

binding affinity ratio (HLA-A*0201 (human) [3]): 0.0001
binding affinity ratio (HLA-A*0202 (human) [4]): 0.0001
binding affinity ratio (HLA-A*0206 (human) [5]): 0.0001
binding affinity ratio (HLA-A*0203 (human)): 0.0002
Binder: VVHYRKWIKDT (modifications not checked) [… (Kallikrein, position 246, 11 amino acids)]

IC50 (HLA-A*0202 (human) [14]): 0.6 nM
Binder: LLFFWLDRSV (modifications not checked) [Peptide 1097.09 … (PAP.21)]

binding affinity ratio (IC50 of the standard peptide / IC50 of the test peptide) (HLA-A*0301 (human) [11]): 0.0006
Binder: QDLFGIWSK (modifications not checked) [… (PAP, position 200)]

binding affinity ratio (IC50 of standard peptide / IC50 of test peptide) (HLA-A*0301 (human) [9]): 0.0005
Binder: YDVLLSYPNK (modifications not checked) [PSM.113 …]
